Tested on: MS2 coat protein
Assay: apparent KD of MS2 coat protein; designed switch direction (-1 OFF switch, 1 ON switch): -1; higher = weaker reporter binding
Summary of the method: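 Designed RNA switches with common flanks were transcribed on Illumina chips by stalled E. coli RNA polymerase and titrated with SNAP-549-labelled MS2 coat protein, from 0.7 or 1.5 nM doubling to 3 µM, in Tris-HCl pH 7.5 buffer with KCl, MgCl2, BSA, DTT, tRNA and Tween-20. Steps lasted 0.8–1.5 h (lowest) to 10–20 min (highest). Titrations ran without input, with 200 uM small-molecule ligand, or with an oligonucleotide input. Normalised cluster fluorescence was curve-fitted, and apparent KD is the per-design median over clusters.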

[1] = input ligand: microRNA oligo, concentration not stated
[2] = Eterna round: R95, input ligand: microRNA oligo, concentration not stated
[3] = Eterna round: R95, input ligand: FMN 200 uM
[4] = Eterna round: R95, input ligand: none

## UUUUUAAAUGAAGGAUAUACUUAACAUGAGGAUCACCCAUGUGGUGUUGUGAGUGAGUGAGUUUAGUAGAAGGUCAAUGAUUUU [JMF's solution 65] (Eterna round: R96, puzzle: Exclusion NG 2)
Input ligand: FMN 200 uM
  apparent KD of MS2 coat protein: 1.25 µM
[1]
  apparent KD of MS2 coat protein: 0.196 µM
Input ligand: none
  apparent KD of MS2 coat protein: 0.211 µM

## GUUGUUACUGAGGAUAUUAUUUUAUUCGAUUGAUAAGAAGGCAGUACAUGAGGAUCACCCAUGUGGGUAGUUAG [Polaris21] (Eterna round: R97, puzzle: Exclusion 6)
Input ligand: FMN 200 uM
  apparent KD of MS2 coat protein: 0.27 µM
Input ligand: none
  apparent KD of MS2 coat protein: 0.338 µM

## AGAUCACAUGAGGAUCACCCAUGUCAGGAUAUGAUACUAUGUACUUCGGUACAUAGUAUCAGAAGGGACUUAAA [Ex1-3: 70] (puzzle: Exclusion 1)
[2]
  apparent KD of MS2 coat protein: 0.101 µM

## GGGAAGUGAGGAUAUAUGAGAGAGGCUGAACCGGACGAGAAGUAGAAGGCACAUGAGGAUCACCCAUGUAGGGA [JR_Exclu4_Sub025] (puzzle: Exclusion 4)
[2]
  apparent KD of MS2 coat protein: 0.128 µM

## AGCAUGCUAGGAUAUACGAAACAUUAGGGUUCGUCGUAUGAACAUGAGGAUCACCCAUGUAGAAGGAGCGUGCA [Mat - Exclusion 2 - Mod of Hyphema - D95] (puzzle: Exclusion 2)
[2]
  apparent KD of MS2 coat protein: 0.0179 µM

## CAUACUCAAGUCAGGAUAUACAGUCGAAUACGGGUGUAGAAGGGACAUGAGGAUCACCCAUGUAGAGAGUAAAG [EX-4 Malc #22] (puzzle: Brourd's mod of Exclusion 4)
[3]
  apparent KD of MS2 coat protein: 0.122 µM
[2]
  apparent KD of MS2 coat protein: 0.033 µM
[4]
  apparent KD of MS2 coat protein: 0.0361 µM

## GAAAAGUGAGGAUAUGGUAAAAGAAAAAGAAAAAAAAAACUCCAGAAGGCACAUGAGGAUCACCCAUGUAAAAG [salish99_ex4_r3_004] (puzzle: Exclusion 4)
[3]
  apparent KD of MS2 coat protein: 0.0335 µM
[2]
  apparent KD of MS2 coat protein: 0.0245 µM
[4]
  apparent KD of MS2 coat protein: 0.024 µM

## UCCUUACAUGAGGAUCACCCAUGUCAGGAUAUCUCCUCACUGCGCUUGCGCAGUGGAUAGAGAAGGGACGGGCU [JL ViennaUCT Aner mod 9] (puzzle: Exclusion 1)
[3]
  apparent KD of MS2 coat protein: 0.0323 µM
[2]
  apparent KD of MS2 coat protein: 0.0271 µM
[4]
  apparent KD of MS2 coat protein: 0.0328 µM

## UUUAACGAUGAGGAUAUAUGAUAUCAAAGCAUCAUAGAAGGCAUCACAUGAGGAUCACCCAUGUGAUCUUCUUG [Mat - Exclusion 6 - JL Mod - D28] (Eterna round: R97, puzzle: Exclusion 6)
Input ligand: FMN 200 uM
  apparent KD of MS2 coat protein: 0.094 µM
Input ligand: none
  apparent KD of MS2 coat protein: 0.0294 µM

## ACAUGAGGAUCACCCAUGUCGGGCUGGUCCGCUCCGGCUGUUGAGGAUAUAGCCCGGUAUCCGCGCUAGAAGGUGAGGGCCGGC [Aenatbe mod 29] (Eterna round: R96, puzzle: Exclusion NG 3)
Input ligand: FMN 200 uM
  apparent KD of MS2 coat protein: 0.0356 µM
[1]
  apparent KD of MS2 coat protein: 0.0295 µM
Input ligand: none
  apparent KD of MS2 coat protein: 0.0314 µM

## AAAUUGCUAGAGGAUAUCGGAUAGGAUCUAUCGCGAGAAGGCUGGACAUGAGGAUCACCCAUGUUCUGUUGGGA [EX6 #29] (Eterna round: R97, puzzle: Exclusion 6)
Input ligand: FMN 200 uM
  apparent KD of MS2 coat protein: 0.0574 µM
Input ligand: none
  apparent KD of MS2 coat protein: 0.0252 µM

## UAUUAGUAAGGAUAUGCGACGUAGGACGAAAGUCCUACGUCGCAGAAGGUACAUGAGGAUCACCCAUGUCUAUU [Mod of Fisker 11 - Jieux - Exclusion 4] (Eterna round: R97, puzzle: Exclusion 4)
Input ligand: FMN 200 uM
  apparent KD of MS2 coat protein: 0.0205 µM
Input ligand: none
  apparent KD of MS2 coat protein: 0.0187 µM

## GUUAGUAUCUAGGAUAUCUAGUACAUAGUAUCUAGAGAAGGAGAUACAUGAGGAUCACCCAUGUUCUGUGUUCU [Exclusion 6 - 1:c] (puzzle: Exclusion 6)
[2]
  apparent KD of MS2 coat protein: 0.022 µM

## UAAAGGCUAGGAUAUCGCACCUUCGACAUGAGGAUCACCCAUGUAUGUCGAUGGUAAAAUCGAGAAGGAGCGAGAA [Artiedqu] (puzzle: Exclusion 5)
[3]
  apparent KD of MS2 coat protein: 0.0317 µM
[2]
  apparent KD of MS2 coat protein: 0.0217 µM
[4]
  apparent KD of MS2 coat protein: 0.0178 µM

## UGAGCUCUAGUAGGAUAUGUCGGAUAUGUUGUUGAGGUUCACCCAACGACGUCAAUGACAGAAGGACAGAAGGACUCCUGCUCU [pwkr exNG2 2xFMN 1xF5.7] (Eterna round: R96, puzzle: Exclusion NG 2)
Input ligand: FMN 200 uM
  apparent KD of MS2 coat protein: 0.111 µM
[1]
  apparent KD of MS2 coat protein: 0.077 µM
Input ligand: none
  apparent KD of MS2 coat protein: 0.315 µM

## GAGUGCUGAGGAUAUACAUGAGGAUCACCCAUGUGCUUCAGCUAGGAGACUAGUAUCAGUAGAAGGCAGUACUC [Mod of lroppy 20 - Jieux - Exclusion 3] (Eterna round: R97, puzzle: Exclusion 3)
Input ligand: FMN 200 uM
  apparent KD of MS2 coat protein: 0.0573 µM
Input ligand: none
  apparent KD of MS2 coat protein: 0.0147 µM

## UCGGCGCGAGGAUAUGCGGUUUGUGCUUUGGGCCCUCGCGUACAUGAGGAUCACCCAUGUAGAAGGCGCGCCGC [Apr-15 SS2-46] (puzzle: Exclusion 2)
[2]
  apparent KD of MS2 coat protein: 0.0956 µM

## GAGGAGCAAGGAUAUACGAGGAUAUGGUAGUUUGUAGAGUGACAUGAGGAUCACCCAUGUAGAAGGUGCGAGGG [JR_Exclu2_Sub099] (puzzle: Exclusion 2)
[2]
  apparent KD of MS2 coat protein: 0.0417 µM

## UUAUAGUAUGUAGGAUAUCGGUCAGUUUCUGAUCGAGAAGGACAUGAGGAUCACCCAUGUAAGGCUACCGGUUUCUGGUGGCCU [JL ENG1 3.52] (Eterna round: R96, puzzle: Exclusion NG 1)
Input ligand: FMN 200 uM
  apparent KD of MS2 coat protein: 0.0944 µM
[1]
  apparent KD of MS2 coat protein: 0.0185 µM
Input ligand: none
  apparent KD of MS2 coat protein: 0.0209 µM

## UAUUAUCAAGUAAGAUCCUACAUGAGGAUCACCCAUGUGCUCGUCUUAUAAGGUACUGUGACGAAAGUCACGGUACC [Sensor 3, v1 - 74] (puzzle: Sensor v3, turn-off variant 1)
[3]
  apparent KD of MS2 coat protein: 0.0313 µM
[2]
  apparent KD of MS2 coat protein: 0.332 µM
[4]
  apparent KD of MS2 coat protein: 0.0338 µM

## CAGAAACAUGAGGAUCACCCAUGUGAGGAUAUGAAAAAGAAAAGAAAAGAAAGAAGAAUCAGAAGGCACAAAGG [salish99-ex1_r3_081] (puzzle: Exclusion 1)
[3]
  apparent KD of MS2 coat protein: 0.0399 µM
[2]
  apparent KD of MS2 coat protein: 0.0308 µM
[4]
  apparent KD of MS2 coat protein: 0.0385 µM

## UAACAGCAAGGAUAUACGGGCUGUGCUUUUCAUUUCUUACAACAUGAGGAUCACCCAUGUAGAAGGUGCAACAA [Ex2 #6] (Eterna round: R97, puzzle: Exclusion 2)
Input ligand: FMN 200 uM
  apparent KD of MS2 coat protein: 0.0544 µM
Input ligand: none
  apparent KD of MS2 coat protein: 0.0248 µM

## GCGCCAUCGUGAGAUGGCGUAAUUACAUGAGGAUCACCCAUGUAGGAUAUCGAUUGCUUUGCAGUCGAGAAGGGCAUGUUUUGU [JL ENG3 3.85] (Eterna round: R96, puzzle: Exclusion NG 3)
Input ligand: FMN 200 uM
  apparent KD of MS2 coat protein: 0.0333 µM
[1]
  apparent KD of MS2 coat protein: 0.0264 µM
Input ligand: none
  apparent KD of MS2 coat protein: 0.0315 µM

## UUAACAUGCUGGUGAUCAUACAUGAGGAUCACCCAUGUAACAAGCUUUUUGUUCGUCUUAUAAGAUCACCAGCAUGU [Stov1/9-B1] (Eterna round: R97, puzzle: Sensor, turn-off variant 1)
Input ligand: FMN 200 uM
  apparent KD of MS2 coat protein: 0.0187 µM
Input ligand: none
  apparent KD of MS2 coat protein: 0.0172 µM

## UUCCUGUCAGGAUAUGACUAGAUGCACGUUAGUGUGUUUACUUAGAAGGGACAUGAGGAUCACCCAUGUAGUCC [Bring Us a Shrubbery-16] (puzzle: Exclusion 4)
[2]
  apparent KD of MS2 coat protein: 0.0317 µM

## GUGAUACAUGAGGAUCACCCAUGUCAGGAUAUGAUACUAUGUACUUCGGUACAUAGUAUCAGAAGGGACAGUGA [Ex1-3: 4] (puzzle: Exclusion 1)
[2]
  apparent KD of MS2 coat protein: 0.125 µM

## GAGCACUGCCGAGGAUAUCCACAUGAGGAUCACCCAUGUAGUGAAAAGUCCCAGUAGAACCAAAUGGAGAAGGUGGCAAGAUAU [Eternabot solution 21] (Eterna round: R96, puzzle: Exclusion NG 2)
Input ligand: FMN 200 uM
  apparent KD of MS2 coat protein: 0.0232 µM
[1]
  apparent KD of MS2 coat protein: 0.02 µM
Input ligand: none
  apparent KD of MS2 coat protein: 0.0179 µM
